Measurements from the array DNA melting data of Ke et al..

Assay: melting temperature; melt of duplexes
Conditions: sodium 0.0675 M; strand 1 µM

Substance | Tm [°C]
CGACGTGCCATATGTGCTG+CAGCACATCGAGCACGTCG ((((((((...((((((((+))))))))...)))))))) | 49.8
CGACGTGCATAATGTGCTG+CAGCACATTCCGCACGTCG ((((((((..(((((((((+)))))))))..)))))))) | 50.2
CGACGTGCCCCATGTGCTG+CAGCACATGTCGCACGTCG ((((((((..(((((((((+)))))))))..)))))))) | 51.2
CGACGTGCTCGATGTGCTG+CAGCACATGGGGCACGTCG ((((((((.(.((((((((+)))))))).).)))))))) | 54.5
CGACGTGCACCATGTGCTG+CAGCACATACTGCACGTCG (((((((((..((((((((+))))))))..))))))))) | 44.9
CGACGTGCGCTATGTGCTG+CAGCACATCAAGCACGTCG ((((((((...((((((((+))))))))...)))))))) | 51.4
CGACGTGCTGAATGTGCTG+CAGCACATCTAGCACGTCG (((((((((..((((((((+))))))))..))))))))) | 53
CGACGTGCCTAATGTGCTG+CAGCACATCTAGCACGTCG ((((((((...((((((((+))))))))...)))))))) | 48.8
CGACGTGCGGCATGTGCTG+CAGCACATTTCGCACGTCG (((((((((..((((((((+))))))))..))))))))) | 53.4
CGACGTGCGTCATGTGCTG+CAGCACATAGTGCACGTCG ((((((((...((((((((+))))))))...)))))))) | 45.9
CGACGTGCGACATGTGCTG+CAGCACATGCGGCACGTCG ((((((((..(((((((((+)))))))))..)))))))) | 54.4
CGACGTGCAGCATGTGCTG+CAGCACATACTGCACGTCG ((((((((((.((((((((+)))))))).)))))))))) | 55.7
CGACGTGCGCTATGTGCTG+CAGCACATAGGGCACGTCG ((((((((.((((((((((+)))))))))).)))))))) | 59.6
CGACGTGCACTATGTGCTG+CAGCACATTAGGCACGTCG ((((((((...((((((((+))))))))...)))))))) | 46.4
CGACGTGCTTGATGTGCTG+CAGCACATGGCGCACGTCG ((((((((...((((((((+))))))))...)))))))) | 47.2
CGACGTGCTCTATGTGCTG+CAGCACATCTCGCACGTCG ((((((((...((((((((+))))))))...)))))))) | 47.1
CGACGTGCGCTATGTGCTG+CAGCACATGCGGCACGTCG ((((((((...((((((((+))))))))...)))))))) | 54
CGACGTGCGTGATGTGCTG+CAGCACATCTGGCACGTCG ((((((((..(((((((((+)))))))))..)))))))) | 55.7

Substance | Tm [°C]
CGACGTGCTCAATGTGCTG+CAGCACATTGAGCACGTCG (((((((((((((((((((+))))))))))))))))))) | 64.2
CGACGTGCCACATGTGCTG+CAGCACATTCAGCACGTCG ((((((((...((((((((+))))))))...)))))))) | 48.9
CGACGTGCACTATGTGCTG+CAGCACATGACGCACGTCG ((((((((...((((((((+))))))))...)))))))) | 44.6
CGACGTGCATTATGTGCTG+CAGCACATCTTGCACGTCG (((((((((..((((((((+))))))))..))))))))) | 51.1
CGACGTGCTCTATGTGCTG+CAGCACATTTCGCACGTCG ((((((((...((((((((+))))))))...)))))))) | 47.3
CGACGTGCTCCATGTGCTG+CAGCACATACTGCACGTCG ((((((((...((((((((+))))))))...)))))))) | 47.4
CGACGTGCCGGATGTGCTG+CAGCACATAACGCACGTCG ((((((((...((((((((+))))))))...)))))))) | 50
CGACGTGCTGTATGTGCTG+CAGCACATCTTGCACGTCG ((((((((...((((((((+))))))))...)))))))) | 49.9
CGACGTGCGACATGTGCTG+CAGCACATGGGGCACGTCG ((((((((..(((((((((+)))))))))..)))))))) | 58.4
CGACGTGCGTCATGTGCTG+CAGCACATGACGCACGTCG (((((((((((((((((((+))))))))))))))))))) | 66.4
CGACGTGCGGAATGTGCTG+CAGCACATATGGCACGTCG ((((((((...((((((((+))))))))...)))))))) | 50.8
CGACGTGCAGTATGTGCTG+CAGCACATGGCGCACGTCG ((((((((...((((((((+))))))))...)))))))) | 50.2
CGACGTGCAACATGTGCTG+CAGCACATAGTGCACGTCG (((((((((..((((((((+))))))))..))))))))) | 48.9
CGACGTGCTAGATGTGCTG+CAGCACATCAAGCACGTCG (((((((((.(((((((((+))))))))).))))))))) | 57.5
CGACGTGCGTTATGTGCTG+CAGCACATCGAGCACGTCG ((((((((...((((((((+))))))))...)))))))) | 52.2
CGACGTGCAGAATGTGCTG+CAGCACATGTGGCACGTCG ((((((((...((((((((+))))))))...)))))))) | 51.7
CGACGTGCACAATGTGCTG+CAGCACATACCGCACGTCG ((((((((...((((((((+))))))))...)))))))) | 44.6
CGACGTGCATGATGTGCTG+CAGCACATGGAGCACGTCG ((((((((...((((((((+))))))))...)))))))) | 50.1
